Results taken from PMC8836243.
Like-named read-outs stand apart in the source and are kept apart here.

What was measured:
Human CCR7 WT (human) [1] = target: Human CCR7 WT (human) (UniProt P32248)
Human CCR7 WT (human) [2] = target: Human CCR7 WT (human) (UniProt P32248); remark: listed apart in the source

Sequence of UniProt P32248 (P32248 25-378): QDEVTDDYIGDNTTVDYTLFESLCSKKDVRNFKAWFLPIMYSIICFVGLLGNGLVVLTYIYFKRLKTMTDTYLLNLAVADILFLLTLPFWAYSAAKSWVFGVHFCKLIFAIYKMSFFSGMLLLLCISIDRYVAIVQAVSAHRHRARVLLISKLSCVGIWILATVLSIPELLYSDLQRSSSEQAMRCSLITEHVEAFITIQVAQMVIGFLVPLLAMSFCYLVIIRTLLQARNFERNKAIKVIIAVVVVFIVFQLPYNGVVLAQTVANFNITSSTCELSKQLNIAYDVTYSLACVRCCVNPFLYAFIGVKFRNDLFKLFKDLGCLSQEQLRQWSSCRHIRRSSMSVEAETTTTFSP

increase in potency in Gαi signalling (BRET) with 10 μM long C21TP (CCL21 81-111) added (Human CCR7 WT (human) [1])	increase in potency in Gαi signalling (BRET) with 10 μM short C21TP (CCL21 89-106) added (Human CCR7 WT (human) [1])	potency in Gαi signalling (BRET), against WT CCL19 (Human CCR7 WT (human) [1])	increase in potency in Gαi signalling (BRET) with 10 μM long C21TP (CCL21 81-111) added (Human CCR7 WT (human) [2])	increase in potency in Gαi signalling (BRET) with 10 μM short C21TP (CCL21 89-106) added (Human CCR7 WT (human) [2])	Substance
3 fold	3.5 fold	22 fold	–	–	CCL19 K71A K73A R74A R75A (CCL19 AMAAA^71-75) (ligand)
–	–	–	19.7 fold	16.6 fold	CCL21 1-91 C80A (from UniProt O00585 24-114) (ligand)
